Measured values reported in patent US20180125924A1 (NORTHWESTERN UNIVERSITY, published 2018).
Groups on a side chain read outwards from the residue. No end group written: not given here. *: point of attachment. triazole = 1,2,3-triazole formed by click reaction linking the lysine-side-chain spacer to the azidoethyl glycoside; Palmitoyl = CCCCCCCCCCCCCCCC(=O)*

Molecular target: recombinant human BMP-2 obtained from Medtronic Sofamor Danek (human, UniProt P12643 283-396)
Assay: cell-based or functional assay

Sequence of recombinant human BMP-2 obtained from Medtronic Sofamor Danek (P12643 283-396 limits assumed): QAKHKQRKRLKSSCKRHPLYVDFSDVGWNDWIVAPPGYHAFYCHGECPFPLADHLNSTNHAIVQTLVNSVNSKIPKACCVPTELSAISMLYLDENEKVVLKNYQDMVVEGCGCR

Binder: Palmitoyl-VVAAEEK([COCH2(O(CH2)2)2NHCO(CH2)2-triazole-ethyl-2‑acetamido‑3,4,6‑tri‑O‑sulfo‑2‑deoxy‑beta‑D‑glycopyranoside]) (also: self-assembled nanofibers) [3,4,6S-GlcNAc PA (PA 1) nanofibers]
- ALP activity in C2C12 cells treated with BMP-2 (75 ng/mL) and PA nanofibers (25 uM): 9 fold
